Measurements from the supplement of paper PMC10567573.

B1: ZNF511 (parent)
chain: EPLPVERDPAAGAAPFRFVARPVR

Variants of: B1
Assay: protein stability index of a GFP-peptide fusion (GPS, HEK-293T) (PSI 1-6); higher = more stable
Conditions: c terminus: a fixed tail appended
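Note: lentivirally expressed fusions sorted by FACS into six bins by GFP to DsRed ratio, PSI derived from sequencing read proportions per bin multiplied by bin number.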

Point of comparison: EPLPVERDPAAGAAPFRFTARPVR, protein stability index 3.97. Against it:
- EPLPVERDPAAGAAPFRFVARPVG — lower, 1.89
- EPLPVERDPAAGAAPFRFVARPVE — lower, 2.15
- EPLPVERDPAAGAAPFRFVARPVD — lower, 2.17
- MPLPVERDPAAGAAPFRFVARPVR — lower, 2.38
- LPLPVERDPAAGAAPFRFVARPVR — lower, 2.69
- VPLPVERDPAAGAAPFRFVARPVR — lower, 2.27
- FPLPVERDPAAGAAPFRFVARPVR — lower, 2.85
- PPLPVERDPAAGAAPFRFVARPVR — lower, 2.23
- WPLPVERDPAAGAAPFRFVARPVR — lower, 2.35
- GPLPVERDPAAGAAPFRFVARPVR — lower, 1.85
- EPLPVERDPAAGAAPLRFVARPVR — higher, 4.06
- EPLPVERDPAAGAAPDRFVARPVR — higher, 5.52
- EPLPVERDPAAGAAPPRFVARPVR — higher, 5.26
- EPLPVERDPAAGAAPSRFVARPVR — higher, 4.88
- EPLPVERDPAAGAAPIRFVARPVR — higher, 4.73
- EPLPVERDPAAGAAPARFVARPVR — higher, 4.67
- EPLPVERDPAAGAAPKRFVARPVR — higher, 4.67
- EPLPVERDPAAGAAPCRFVARPVR — higher, 4.08
- EPLPVERDPAAGAAPWRFVARPVR — lower, 2.46
- EPLPVERDPAAGAAPMRFVARPVR — lower, 3.69
- EPLPVERDPAAGAAPGRFVARPVR — higher, 5.43
- EPLPVERDPAAGAAPVRFVARPVR — higher, 4.62
- EPLPVERDPAAGAAPFRFVARCVR — lower, 2.17
- EPLPVERDPAAGAAPFRFVARAVR — lower, 2.64
- EPLPVERDPAAGAAPFRFVARLVR — lower, 2.33
- EPLPVERDPAAGAAPFRFVARKVR — lower, 2.22
- EPLPVERDPAAGAAPFRFVARGVR — lower, 1.85
- EPLPVERDPAAGAAPFRFVARYVR — lower, 2.32
- EPLPVERDPAAGAAPFRFVARTVR — lower, 1.92
- EPLPVERDPAAGAAPFRFVARDVR — lower, 2.77
- EPLPVERDPAAGAAPFRFVARRVR — lower, 2.8
- EPLPVERDPAANAAPFRFVARPVR — lower, 2.27
- EPLPVERDPAAMAAPFRFVARPVR — lower, 2.38
- EPLPVERDPAARAAPFRFVARPVR — lower, 2.33
- EPLPVERDPAASAAPFRFVARPVR — lower, 2.02
- EPLPVERDPAAQAAPFRFVARPVR — lower, 2.55
- EPLPVWRDPAAGAAPFRFVARPVR — lower, 1.56
- EPLPVTRDPAAGAAPFRFVARPVR — lower, 2.6
- EPLPVARDPAAGAAPFRFVARPVR — lower, 2.92
- EPLPVNRDPAAGAAPFRFVARPVR — lower, 2.5
- EPLPVGRDPAAGAAPFRFVARPVR — lower, 2.08
- EPLPVRRDPAAGAAPFRFVARPVR — lower, 3.13
- EPLPVPRDPAAGAAPFRFVARPVR — lower, 3
- EPLLVERDPAAGAAPFRFVARPVR — lower, 2.27
- EPLWVERDPAAGAAPFRFVARPVR — lower, 1.58
- EPLMVERDPAAGAAPFRFVARPVR — lower, 2.66
- EPLSVERDPAAGAAPFRFVARPVR — lower, 3.43
- EPLVVERDPAAGAAPFRFVARPVR — lower, 2.49
- EPLDVERDPAAGAAPFRFVARPVR — lower, 2.9
- EPLYVERDPAAGAAPFRFVARPVR — lower, 1.64
- EPLCVERDPAAGAAPFRFVARPVR — lower, 1.91
- EPLFVERDPAAGAAPFRFVARPVR — lower, 2.52
- EPLHVERDPAAGAAPFRFVARPVR — lower, 2.14
- EPLNVERDPAAGAAPFRFVARPVR — lower, 2.29
- EPLPVERDPAAGSAPFRFVARPVR — lower, 3.04
- EPLPVERDPAAGPAPFRFVARPVR — lower, 2.37
- EPLPVERDPAAGEAPFRFVARPVR — lower, 2.62
- EPLPVERDPAAGHAPFRFVARPVR — lower, 2.43
- EPLPVERDPAAGIAPFRFVARPVR — lower, 1.66
- EPLPVERDPAAGKAPFRFVARPVR — lower, 2.71
- EPLPVERDPAAGCAPFRFVARPVR — lower, 2
- EPLPVERDPAAGAAPFRFVSRPVR — lower, 2.05
- EPLPVERDPAAGAAPFRFVFRPVR — lower, 3.42
- EPLPVERDPAAGAAPFRFVNRPVR — lower, 2.61
- EPLPVERDPAAGAAPFRFVVRPVR — lower, 2.46
- EPLPVERDIAAGAAPFRFVARPVR — lower, 2.34
- EPLPVERDNAAGAAPFRFVARPVR — lower, 2.24
- EPLPVERDCAAGAAPFRFVARPVR — lower, 2.34
- EPLPVERDTAAGAAPFRFVARPVR — lower, 2.74
- EPLPVERDLAAGAAPFRFVARPVR — lower, 2.42
- EPLPVERDEAAGAAPFRFVARPVR — lower, 2.2
- EPLPVERDHAAGAAPFRFVARPVR — lower, 2.59
- EPLPVERDQAAGAAPFRFVARPVR — lower, 1.98
- EPLPVERDDAAGAAPFRFVARPVR — lower, 2.38
- EPLPVERDPAAGAAPFRFVARPSR — lower, 2.41
- EPLPVERDPAAGAAPFRFVARPYR — lower, 2.07
- EPLPVERDPAAGAAPFRFVARPER — lower, 2.4
- EPLPVERDPAAGAAPFRFVARPAR — lower, 2.58
- EPLPVERDPAAGAAPFRFVARPPR — lower, 2.83
- EPLPVERDPAAGAAPFRFVARPFR — lower, 2.48
- EPLPVERDPAAGAAPFRFVARPNR — lower, 2.13
- EPLPVERDPAAGAAPFRFHARPVR — lower, 1.62
- EPLPVERDPAAGAAPFRFSARPVR — higher, 4.62
- EPLPVERDPAAGAAPFRFPARPVR — higher, 5.1
- EPLPVERDPAAGAAPFRFNARPVR — higher, 4.36
- EPLPVERDPAAGAAPFRFQARPVR — lower, 2.99
- EPLPVERDPAAGAAPFRFIARPVR — lower, 2.89
- EPLPVERDPAAGAAPFRFAARPVR — higher, 4.47
- EPLPVERDPAAGAAPFRFKARPVR — higher, 4.83
- EPLPVERDPAAGAAPFRFYARPVR — higher, 4.31
- EPLPVERDPAAGAAPFRFEARPVR — higher, 4.57
- EPLPVERDPAAGAAPFRFRARPVR — higher, 4.22
- EPLPVERDPAAGAAPFRFLARPVR — the same, 3.97
